The values that follow come from article PMC4569319 (Molecular Biology of the Cell, 2015).

In this test the target is Murine ΔIBB-importin α1 (mouse, UniProt P52293 70-529). Briefly: crystal structure.

B1: Pom121NLS(291-320), GST cleaved off (peptide)
chain: LKEKKKRTVAEEDQLHLDGQENKRRRHDSS
For the molecule B1, the binding result was “binds”.
